B1: Biotin-MYC-1173/-1145 WT (OBS2) (dsDNA)
DNA 1: ACAAATGCAATGGGAGTTTATTCATAAC
DNA 2: GTTATGAATAAACTCCCATTGCATTTGT
B2: Biotin-MYC-1209/-1140 WT (OBS1+OBS2) (dsDNA)
DNA 1: CTGTGCATACATAATGCATAATACATGACTCCCCCCAACAAATGCAATGGGAGTTTATTCATAACGCGCT
DNA 2: AGCGCGTTATGAATAAACTCCCATTGCATTTGTTGGGGGGAGTCATGTATTATGCATTATGTATGCACAG
B3: Biotin-MYC-1209/-1166 WT (OBS1) (dsDNA)
DNA 1: CTGTGCATACATAATGCATAATACATGACTCCCCCCAACAAATGC
DNA 2: GCATTTGTTGGGGGGAGTCATGTATTATGCATTATGTATGCACAG

Experiments:
OCT4 [1] = target: T1, OCT4 (human, UniProt Q01860 1-360); assay: EMSA; mono-OCT4 complex; 20 fmol probe; Panomics EMSA Gel Shift Kit per manufacturer; OCT4 0.5 mg as printed (likely ug), biotin probe 20 fmol; buffer, pH and temperature not stated; details: protein: commercial; label: biotin at 5' end
T1 sequence (Q01860 whole entry): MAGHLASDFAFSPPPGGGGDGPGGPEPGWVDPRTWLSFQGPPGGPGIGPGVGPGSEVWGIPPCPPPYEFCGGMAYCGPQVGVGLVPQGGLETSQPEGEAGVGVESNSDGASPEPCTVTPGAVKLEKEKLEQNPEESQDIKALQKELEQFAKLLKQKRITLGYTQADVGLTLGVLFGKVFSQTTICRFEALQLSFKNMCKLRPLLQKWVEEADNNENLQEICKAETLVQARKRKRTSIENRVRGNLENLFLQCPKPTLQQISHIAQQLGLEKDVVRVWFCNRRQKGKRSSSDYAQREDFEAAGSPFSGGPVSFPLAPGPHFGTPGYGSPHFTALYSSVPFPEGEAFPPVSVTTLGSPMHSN

OCT4 [2] = target: T1, OCT4; assay: EMSA; mono- and di-OCT4 complexes; 20 fmol probe; Panomics EMSA Gel Shift Kit per manufacturer; OCT4 0.5 mg as printed (likely ug), biotin probe 20 fmol; buffer, pH and temperature not stated; details: protein: commercial; label: biotin at 5' end

| Binder | binding result (OCT4 [1]) | binding result (OCT4 [2]) |
| --- | --- | --- |
| B1 | binds |  |
| B2 |  | binds |
| B3 |  | binds |

Reference: PMC7224192, “MYC transcription activation mediated by OCT4 as a mechanism of resistance to 13-cisRA-mediated differentiation in neuroblastoma”
